# Results from the supplement of paper PMC9732359.
# ± gives the uncertainty stated by the source.
# Assay: protein stability index of a GFP-peptide fusion (yeast GPS) (PSI 1-4); higher = more stable; sorted into four equal gates, so the index is relative within each strain
# How it was run: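 Plasmids isolated from each sorting gate were PCR-amplified and Illumina-sequenced, and barcodes assigned the reads to strains. The gates, four of equal size, were set by GFP/Cherry fluorescence ratio on mid-log cultures in leucine-free medium. These cultures were yeast carrying a pooled library of tiled 17-residue yeast protein peptides fused downstream of GFP on a plasmid that also expresses Cherry. The protein stability index is the sum of every gate's read frequency times its gate number.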
Sequence,protein stability index (doa10∆),protein stability index (pdr5∆),protein stability index (san1∆),protein stability index (ubr1∆)
CCINAAFLALVDAGIAL [RRP46],2.37 ± 0.078,2.88 ± 0.07,2.06 ± 0.061,2.62 ± 0.051
AMANAPGNNIPYMNHKN [GAL11],2.83 ± 0.17,3.26 ± 0.19,2.6 ± 0.18,2.75 ± 0.16
SKLSQEFLYPHLNFPNV [SNF12],2.88 ± 0.08,2.96 ± 0.088,2.82 ± 0.069,3.02 ± 0.065
DILSKLYLLLARVFEIW [SNF11],2.15 ± 0.044,2.36 ± 0.053,2.19 ± 0.07,2.39 ± 0.041
LEFARITPMNDDQCMLI [SIN4],2.63 ± 0.074,2.82 ± 0.089,2.25 ± 0.051,3.31 ± 0.067
GSYIDKKCPFTGLVSIR [RPS11A],2.12 ± 0.07,2.06 ± 0.059,2.27 ± 0.081,2.2 ± 0.049
SDSLDIAQGIDLVRDID [SRP72],3.29 ± 0.11,3.38 ± 0.088,3.09 ± 0.077,3.26 ± 0.1
MFHGAKGPLLIERIGHL [PCI8],2.5 ± 0.22,–,–,–
GQMAPIGTGAFDVMIDE [RPO21],2.29 ± 0.12,2.3 ± 0.13,2.37 ± 0.12,2.54 ± 0.057
SKLDIYTQQQALEYIGA [RET1],1.94 ± 0.12,2.23 ± 0.1,2.59 ± 0.12,1.89 ± 0.13
ADVTSNIDSSAQFTFGK [YOR098C/NUP1],3.05 ± 0.093,3.25 ± 0.087,2.89 ± 0.091,3.13 ± 0.057
KVEIPLPNEAGRLEIFK [RPT4],–,3.09 ± 0.17,2.52 ± 0.18,2.74 ± 0.21
VLSDQVGSEKVLQDLRL [YJL039C/NUP192],3.12 ± 0.2,–,–,–
LQCISQINQGVPSAKPL [SNF11],2.98 ± 0.092,1.95 ± 0.081,2.5 ± 0.083,2.41 ± 0.074
AEKYQERSLRQKYNLLH [SNM1],2.32 ± 0.057,2.73 ± 0.074,3.23 ± 0.067,3.12 ± 0.083
ENLMVQRTCLMTVTFLI [YCS4],2.09 ± 0.053,1.97 ± 0.045,2.16 ± 0.07,2.04 ± 0.038
KTKAMVPPINCIFNFLQ [SME1],1.65 ± 0.042,1.65 ± 0.037,1.97 ± 0.07,2.12 ± 0.036
KIYNFGELLHHPIMETI [RPN9],2.58 ± 0.068,2.6 ± 0.074,1.84 ± 0.11,2.91 ± 0.11
NKKIYQWNKLTSFDIKR [POP6],2.93 ± 0.074,2.95 ± 0.079,2.18 ± 0.2,3.03 ± 0.083
GDFLDFQVHERLAPLIK [ARP7],3.29 ± 0.16,3.29 ± 0.13,3.42 ± 0.1,3.47 ± 0.098
RKVEKEKNEKEREIKRR [UBP6],3.32 ± 0.056,3.27 ± 0.054,3.09 ± 0.053,3.17 ± 0.068
KTKYILQRPTATDEESV [CSN12],3.18 ± 0.084,3.12 ± 0.081,2.95 ± 0.17,3.14 ± 0.2
RNFLETVELQVGLKNYD [RPL1A],3.01 ± 0.087,3.08 ± 0.079,3.1 ± 0.091,3.15 ± 0.074
ELPLVITMPATNGKPDM [ARP7],2.9 ± 0.088,3.04 ± 0.074,2.9 ± 0.065,2.99 ± 0.059
VLSIPPANHLQSDFCLS [YGL100W/SEH1],2.94 ± 0.11,2.44 ± 0.1,2.52 ± 0.11,2.59 ± 0.044
RNDKTLELMDSKKTGQF [POP1],3.34 ± 0.069,3.44 ± 0.06,3.18 ± 0.064,3.37 ± 0.05

Sequence,protein stability index (doa10∆),protein stability index (pdr5∆),protein stability index (san1∆),protein stability index (ubr1∆)
TIRVVTENKIFVEVERA [RPN5],1.51 ± 0.18,1.94 ± 0.14,–,2.45 ± 0.27
RMKSITSTSQKIPSASI [SNF5],3.2 ± 0.082,3.18 ± 0.072,3.17 ± 0.045,3.08 ± 0.051
YPVHEAHKGQIVLIKGI [SNU114],1.52 ± 0.095,2.45 ± 0.088,1.37 ± 0.15,2.87 ± 0.088
YKWTQGINNLSEIWDVS [PRP8],3.03 ± 0.1,2.9 ± 0.077,3.12 ± 0.099,2.44 ± 0.066
SFDAVSDSIELLKQYPK [YJR042W/NUP85],2.86 ± 0.083,3.16 ± 0.085,2.56 ± 0.11,2.59 ± 0.087
NDSNPSFSFSIPSKNTP [YLR335W/NUP2],2.42 ± 0.048,2.13 ± 0.04,2.58 ± 0.046,2.64 ± 0.047
AKKTIQNPLNKSQNTAL [SIR4],3.02 ± 0.058,3.1 ± 0.054,2.99 ± 0.042,3.08 ± 0.045
KLKGLMKLNILDERFAS [IRR1],2.29 ± 0.13,2.75 ± 0.083,2.4 ± 0.16,2.35 ± 0.064
VEVIKQLSLDASKTNLR [GAL11],2.51 ± 0.063,2.62 ± 0.073,3.24 ± 0.077,2.71 ± 0.049
ADQEQAKLIRSAIEHTT [RPO21],3.19 ± 0.12,2.96 ± 0.15,2.82 ± 0.1,2.84 ± 0.1
FTRPLFVLLEIEPVTKV [YCS4],1.94 ± 0.062,2.05 ± 0.07,1.95 ± 0.081,1.97 ± 0.069
ELAAKEEPAKEEAPAPT [FAS2],3.08 ± 0.2,3.24 ± 0.14,–,–
TFGIRRNEKIAVHVTVR [RPL11A],2.17 ± 0.082,1.68 ± 0.076,2.12 ± 0.081,2.21 ± 0.072
VKQYNKKWPQFYAAVQK [SIN4],1.49 ± 0.15,1.93 ± 0.1,1.55 ± 0.1,1.68 ± 0.047
GNGELYMDCLLYDLRAS [SNU114],2.03 ± 0.058,2.12 ± 0.1,1.91 ± 0.13,2.29 ± 0.077
ATLGIDPPKGILLYGPP [RPT1],2.97 ± 0.078,2.96 ± 0.077,2.95 ± 0.13,2.98 ± 0.047
PVSVSRIARALKQEGAA [RPL18A],3.36 ± 0.22,2.83 ± 0.11,2.96 ± 0.12,3.3 ± 0.057
TIFNLPKNKLVPTLEAK [FAS1],2.27 ± 0.059,2.34 ± 0.081,3.08 ± 0.051,3.01 ± 0.061
ICDPVHKHREARGLTAT [RPL15A],3.49 ± 0.12,2.81 ± 0.14,2.93 ± 0.13,3.26 ± 0.099
KRKCGHTNQLRPKKKLK [RPL40A],2.76 ± 0.038,2.84 ± 0.036,2.942 ± 0.028,2.994 ± 0.029
ERQMNFLTNELIRLQME [SWI3],3.07 ± 0.11,3.12 ± 0.072,3.22 ± 0.048,3.09 ± 0.069
DHIAIDWEDEEKYEDED [DSN1],2.52 ± 0.15,2.86 ± 0.12,2.55 ± 0.09,2.12 ± 0.08
SASTSATGISGSVSEET [ECM29],3.34 ± 0.047,3.25 ± 0.047,3.12 ± 0.041,3.33 ± 0.042
IQLNGGSISEKVDWARE [RPL3],2.66 ± 0.29,2.96 ± 0.12,2.88 ± 0.12,–
CDYYNTFLLNNKNIDIG [RPN2],3.14 ± 0.087,3.04 ± 0.076,2.85 ± 0.069,2.79 ± 0.086
KASLLLHVLVAHKLKKS [FAS2],1.38 ± 0.055,1.27 ± 0.043,1.12 ± 0.088,1.25 ± 0.038
